Residue numbers refer to the chain shown, from its start.
B1: Mab 2F11 (antibody, V domains shown)
VH: QVQLKESGPGLVAPSQSLSITCTVSGFSLTTYDISWIRQSPGKGLEWLGVIWTDGGTNYNSPFMSRLSIRKDNSKSQVFLKMNRLQTDDTAIYYCVRDQRLYFDVWGAGTTVTVSS
VL: NIVMTQSPKSMSMSVGERVTLNCKASEDVNTYVSWYQQQPEQSPKLLIYGASNRYTGVPDRFTGGGSTTDFTLTISSVQAEDLADYFCGQSFSYPTFGTGTKLEIK
notes: Murine monoclonal antibody from a hybridoma; also called muMab 2F11
B2: Mab 1G10 (antibody, V domains shown)
VH: B1 VH with Q1R, T31S, T53S, D54G, S68R, R70S, N73D, K75R, M82V, Q99L
VL: KIVMTQSPKSMSVSVGERVSLSCKASEDVGTYVSWYQQKPEQSPKLLIYGSSNRYTGVPDRFTGSGSATDFTLTISSVQAEDLADYSCGQSFTYPTFGTGTKLEIK
notes: Murine monoclonal antibody from a hybridoma
B3: Mab 2E10 (antibody, V domains shown)
VH: QVQLKESGPGLVAPSKSLSITCTVSGSSLDSFDISWIRQSPGKGLEWLGVIWTGGGTNYNSGFMSRLRITKDNSKSQVLLKMNSLQSDDTAIYYCVRDPRLYFDVWGAGTTVTVSS
VL: B1 VL with N22S, N30V, Q39K, E41D, G65S, T68A, F87Y, S91T
notes: as for B2
B4: Mab 2H7 (antibody, V domains shown)
VH: B3 VH with S40P, T70S, L79F, N83S
VL: B1 VL with N22S, N30V, Q39K, G65S, T68A, V78I, F87Y, S91T
notes: as for B2

Assays:
[1] = target: CSF-1R of cynomolgous monocytes (cynomolgous); assay: cell-based or functional assay
[2] = target: T1, human CSF-1R fragment D1-D3 (human, UniProt P07333 20-311); assay: SPR Biacore T100, 37 C, antibody captured, D1-D3 single cycle kinetics
T1 construct: Subcloned into the pCMV-presS-HisAvitag expression vector; not shown: His-Avi tag of the vector pCMV-presS-HisAvitag
T1 sequence (P07333 20-311): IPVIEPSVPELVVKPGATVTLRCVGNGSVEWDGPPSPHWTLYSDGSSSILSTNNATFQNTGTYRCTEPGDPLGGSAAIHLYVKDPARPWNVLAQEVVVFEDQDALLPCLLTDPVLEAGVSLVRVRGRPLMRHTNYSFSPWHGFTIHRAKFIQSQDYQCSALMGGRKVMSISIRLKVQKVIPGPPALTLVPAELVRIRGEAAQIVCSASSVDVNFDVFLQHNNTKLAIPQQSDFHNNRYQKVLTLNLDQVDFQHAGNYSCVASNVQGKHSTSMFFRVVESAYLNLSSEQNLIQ
Protocol: Antibodies against CSF-1R were captured via amine coupled capture molecules. Using the single cycle kinetics five increasing concentrations of human CSF-1R fragment D1-D3 (SEQ ID NO: 66) were injected. Human CSF-1R fragment D1-D3 was subcloned into pCMV-presS-HisAvitag expression vector.
Single Cycle Kinetics was measured at a flow rate of 30 μL/min by five consecutive injections of the analyte with concentrations, c=7.8, 31.25, 125 500 and 2000 nM, without regeneration. Each injection was 30 seconds long and followed by a dissociation phase of 120 Seconds for the first four injections, and finally 1200 seconds for the highest concentration (=last injection).
Kinetic parameters were calculated by using the usual double referencing (control reference: binding of analyte to capture molecule; Flow Cell: subdomain CSF-1R concentration “0” as Blank) and calculation with model ‘titration kinetics 1:1 binding with draft’.

Binder	% inhibition (of survival) = (100% - % survival) [1]	% survival (cynomolgous monocytes, 5 µg/ml antibody) [1]	binding result [2]
B1	96%	4%	no binding (tested: 2000 nM)
B2	98%	2%	no binding (tested: 2000 nM)
B3	83%	17%	no binding (tested: 2000 nM)
B4	92%	8%	

— patent US20110165156A1 (published 2011)
